In assay [1] the target is T1, 人CMTM6氨基酸序列2到24位氨基酸的多肽 (CMTM6 N2-24) (human, UniProt Q9NX76 2-24, C末端耦联BSA (the BSA conjugate is the one made for ELISA, paragraph 46; the KLH conjugate was used for immunisation)).
T1 construct: range 2-24; also called CMTM6 N2-24多肽; BSA耦联的CMTM6 N2-24多肽
T1 peptide (looked up): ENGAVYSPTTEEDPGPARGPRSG
Description: indirect ELISA, serially diluted peptide coated on the plate. A general note: In an ELISA, binding on a coated surface is turned into a signal by an enzyme label.

Assay [2] addresses T2, 人CMTM6 (endogenous, in 786-O cells and colon cancer tissue) (human, UniProt Q9NX76 1-183).
T2 construct: whole, on cells
T2 sequence (looked up): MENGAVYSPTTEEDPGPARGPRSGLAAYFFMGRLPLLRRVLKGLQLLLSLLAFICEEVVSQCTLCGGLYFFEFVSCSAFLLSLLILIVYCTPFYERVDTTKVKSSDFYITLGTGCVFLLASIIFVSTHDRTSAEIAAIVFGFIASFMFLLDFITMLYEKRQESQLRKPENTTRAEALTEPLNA
Nature of the assay: Western blot of 786-O lysates, compared with CMTM6 knockout clones 2E7 and 4D10. For orientation: In western blotting, separated proteins are transferred to a membrane and probed.

Assay [3] addresses T3, Flag-CMTM6 (overexpressed in HEK293T cells) (human, UniProt Q9NX76 1-183).
T3 construct: Detected in denatured cell lysate by Western blot; the band is 26 kD; also called Flag-CMTM6融合表达载体; not shown: Flag tag
T3 sequence (looked up): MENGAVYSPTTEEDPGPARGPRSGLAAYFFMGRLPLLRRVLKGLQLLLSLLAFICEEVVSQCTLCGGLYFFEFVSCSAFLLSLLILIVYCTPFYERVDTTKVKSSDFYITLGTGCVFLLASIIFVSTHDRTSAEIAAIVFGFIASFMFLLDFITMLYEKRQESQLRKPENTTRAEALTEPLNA
Description: Western blot of HEK293T lysates, 1 ug/mL primary antibody; empty-vector control gave no signal.

B1: 1-19重链(HC)和轻链(LC)超表达上清 (recombinant 1-19 from HEK293T cells co-transfected with heavy and light chain plasmids) (antibody, V domains shown)
VH: EVQLQQSGAELVKPGASVKLSCASSGFNIKDTYIHWVKRRPEQGLEWIGRIDPANGKTYFHSNFQGKATITADTSSNTAHLELSSLTSEDTAVYYCAFLYDGPIDYWGQGTSVTVSS
VL: DVLMTQTPLSLPVSLGDQASISCRSSQSIVYRDGNTYLDWYLQKPGQSPKLLIYKVSNRFSGVPDRFSGSGSGTDFTLKISRVEAEDLGVYYCFQGSLFPYTFGGGTKLEI
notes: Full-length light and heavy chains amplified from 1-19 hybridoma cDNA, cloned into pcDNA3.1 and expressed in HEK293T; see the note of m1 for the printed FR/CDR pieces; also called 共转染本发明抗体1-19重轻链质粒的HEK293T细胞上清
Regarding B1, the binding result in assay [1] is “binds”.

B2: 鼠抗人CMTM6单克隆抗体1-19 (purified from hybridoma supernatant) (antibody, V domains shown)
VH: EVQLQQSGAELVKPGASVKLSCASSGFNIKDTYIHWVKRRPEQGLEWIGRIDPANGKTYFHSNFQGKATITADTSSNTAHLELSSLTSEDTAVYYCAFLYDGPIDYWGQGTSVTVSS
VL: DVLMTQTPLSLPVSLGDQASISCRSSQSIVYRDGNTYLDWYLQKPGQSPKLLIYKVSNRFSGVPDRFSGSGSGTDFTLKISRVEAEDLGVYYCFQGSLFPYTFGGGTKLEI
notes: also called 1-19mAb; 本发明抗体1-19
For the molecule B2, the binding result in assay [2] and in assay [3] was “binds” throughout.

Source of the values: patent CN112812179A (UNIV BEIJING, dated 2021).
